Legend:
DDX1 lacking D2 domain = target: T1, DDX1 lacking D2 domain (UniProt Q92499 1-450); assay: ITC; ITC: 20 mM Tris pH 7.5, 150 mM NaCl, 25 C; YTH labelling: 3 uM YTH, 12 uM BP/CP (200 mM NaCl chosen after optimization); pull-down: HeLa RIPA lysate, 4 C, UV 6; conditions: protein: recombinant; tags: pET28a, Ni-NTA purified (His)
T1 sequence: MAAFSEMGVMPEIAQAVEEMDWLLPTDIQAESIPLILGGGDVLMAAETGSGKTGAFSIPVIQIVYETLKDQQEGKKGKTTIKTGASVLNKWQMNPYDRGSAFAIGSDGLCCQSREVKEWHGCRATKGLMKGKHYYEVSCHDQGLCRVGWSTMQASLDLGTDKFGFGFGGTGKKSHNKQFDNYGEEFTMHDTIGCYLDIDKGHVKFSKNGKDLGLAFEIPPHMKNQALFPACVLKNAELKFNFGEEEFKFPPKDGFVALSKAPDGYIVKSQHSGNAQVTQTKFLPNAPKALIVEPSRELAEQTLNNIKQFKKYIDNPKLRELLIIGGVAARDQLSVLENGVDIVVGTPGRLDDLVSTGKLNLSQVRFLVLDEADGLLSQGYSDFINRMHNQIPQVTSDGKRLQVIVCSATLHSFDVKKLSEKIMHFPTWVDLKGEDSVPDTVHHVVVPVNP

DDX1 = target: T2, DDX1 (UniProt Q92499 1-728); assay: as above; conditions: protein: recombinant; tags: pET28a, Ni-NTA purified (His)
T2 sequence: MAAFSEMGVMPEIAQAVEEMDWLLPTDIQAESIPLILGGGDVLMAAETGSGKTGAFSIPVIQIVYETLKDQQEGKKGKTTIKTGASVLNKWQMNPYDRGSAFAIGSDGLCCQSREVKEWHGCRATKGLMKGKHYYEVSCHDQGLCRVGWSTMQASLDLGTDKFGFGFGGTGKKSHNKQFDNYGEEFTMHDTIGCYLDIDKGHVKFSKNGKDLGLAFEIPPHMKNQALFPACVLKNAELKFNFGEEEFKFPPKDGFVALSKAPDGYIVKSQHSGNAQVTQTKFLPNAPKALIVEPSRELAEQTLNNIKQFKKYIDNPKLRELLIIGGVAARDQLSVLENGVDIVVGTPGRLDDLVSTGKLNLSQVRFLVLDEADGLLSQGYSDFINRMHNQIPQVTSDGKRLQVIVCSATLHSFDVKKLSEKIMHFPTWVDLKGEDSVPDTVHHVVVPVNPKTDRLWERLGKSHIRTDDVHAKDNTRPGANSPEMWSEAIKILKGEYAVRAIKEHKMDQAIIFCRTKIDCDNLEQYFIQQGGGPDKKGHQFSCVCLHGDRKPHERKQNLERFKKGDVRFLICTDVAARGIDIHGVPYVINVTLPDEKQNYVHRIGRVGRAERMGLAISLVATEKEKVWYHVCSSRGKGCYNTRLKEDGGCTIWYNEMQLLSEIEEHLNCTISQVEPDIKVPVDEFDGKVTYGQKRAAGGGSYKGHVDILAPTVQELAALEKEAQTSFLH

B1: Am-modified ssRNA (ITC) (ssRNA)
RNA: AAGAUC
modifications: 2'-O-methyl A
binding result (DDX1 lacking D2 domain): no binding
binding result (DDX1): binds

Source: publication PMC8441146, “DNA-guided photoactivatable probe-based chemical proteomics reveals the reader protein of mRNA methylation”
